The values that follow come from PMC10349882, “High resolution structures define divergent and convergent mechanisms of archaeal proteasome activation” (Communications Biology, 2023).

To fix the notation:
B1: T20S β subunit (natural protein, Thermoplasma acidophilum, UniProt P28061 9-211, looked up)
chain: TTTVGITLKDAVIMATERRVTMENFIMHKNGKKLFQIDTYTGMTIAGLVGDAQVLVRYMKAELELYRLQRRVNMPIEAVATLLSNMLNQVKYMPYMVQLLVGGIDTAPHVFSIDAAGGSVEDIYASTGSGSPFVYGVLESQYSEKMTVDEGVDLVIRAISAAKQRDSASGGMIDVAVITRKDGYVQLPTDQIESRIRKLGLIL
notes: Proteasome subunit beta, Thermoplasma acidophilum; Subunit of m1, written alone for the subunit-subunit rows of the structures
B2: T20S α subunit, wild type (natural protein, Thermoplasma acidophilum)
chain: MQQGQMAYDRAITVFSPDGRLFQVEYAREAVKKGSTALGMKFANGVLLISDKKVRSRLIEQNSIEKIQLIDDYVAAVTSGLVADARVLVDFARISAQQEKVTYGSLVNIENLVKRVADQMQQYTQYGGVRPYGVSLIFAGIDQIGPRLFDCDPAGTINEYKATAIGSGKDAVVSFLEREYKENLPEKEAVTLGIKALKSSLEEGEELKAPEIASITVGNKYRIYDQEEVKKFL
notes: Proteasome subunit alpha, Thermoplasma acidophilum; Subunit of m1, written alone for the subunit-subunit rows of the structures; also called proteasome α-subunit
B3: T20S α subunit L81Y (natural protein, Thermoplasma acidophilum)
chain: B2 chain with L81Y
notes: Proteasome subunit alpha, Thermoplasma acidophilum; α subunit of the mutant 20S whose cryo-EM structure is solved here; also called T20S-αL81Y; T20S L81Y

Data set [1] concerns the molecule itself. Kind of data set: cryo-EM structure; T20S-αL81Y, 0.5 mg/mL in 50 mM Tris pH 7.4, 150 mM NaCl; D7 symmetry; partially open gate.
The data set “T20S α subunit L81Y” has as its target B3. The description is as above. Conditions: both partners purified.
The target in data set [2] is B2. Kind of data set: cryo-EM structure; WT T20S, 0.5 mg/mL in 50 mM Tris pH 7.4, 150 mM NaCl; D7 symmetry; closed gate. Conditions: both partners purified.
Data set [3] concerns the molecule itself. Described as above.

Residue numbers refer to the chain shown, from its start. In names and notes the source's numbering stands.

As to B1, the binding result (in data set [1]; in the data set with T20S α subunit L81Y; in data set [2]) was “binds” throughout.
B2: in data set [3], the binding result was “binds”.
B3: the binding result in data set [1] is reported as “binds”.
